Patent publication US20250206828A1, “ANTI-ADENOSINE RECEPTOR (A2aR) ANTIBODIES AND THE USE THEREOF” (Adept Therapeutics Inc., priority 2022, published 2025)
Read-outs that look alike come from different tables or passages of the source.

Experiments:
[1] = biological target: T1, human adenosine A2A receptor (A2aR) (human, UniProt P29274 1-412); assay: flow cytometry titration, HEK293-hA2aR cells, purified antibody
T1 construct: Assays used HEK293 cells stably overexpressing human A2aR (BPS Bioscience 79381), human A2aR-expressing CHO cells, or endogenous A2aR on human PBMC; also called human A2aR; hA2aR

[2] = biological target: T1, human adenosine A2A receptor (A2aR); assay: flow cytometry, HEK293-hA2aR cells, supernatant 1 ug/ml
[3] = biological target: T1, human adenosine A2A receptor (A2aR); assay: cell-based or functional assay
[4] = biological target: T1, human adenosine A2A receptor (A2aR); assay: flow cytometry, HEK293-hA2aR cells, supernatant 1 ug/ml; remark: listed apart in the source
[5] = biological target: T1, human adenosine A2A receptor (A2aR); assay: cell-based or functional assay; remark: listed apart in the source

T1 sequence (P29274 whole entry): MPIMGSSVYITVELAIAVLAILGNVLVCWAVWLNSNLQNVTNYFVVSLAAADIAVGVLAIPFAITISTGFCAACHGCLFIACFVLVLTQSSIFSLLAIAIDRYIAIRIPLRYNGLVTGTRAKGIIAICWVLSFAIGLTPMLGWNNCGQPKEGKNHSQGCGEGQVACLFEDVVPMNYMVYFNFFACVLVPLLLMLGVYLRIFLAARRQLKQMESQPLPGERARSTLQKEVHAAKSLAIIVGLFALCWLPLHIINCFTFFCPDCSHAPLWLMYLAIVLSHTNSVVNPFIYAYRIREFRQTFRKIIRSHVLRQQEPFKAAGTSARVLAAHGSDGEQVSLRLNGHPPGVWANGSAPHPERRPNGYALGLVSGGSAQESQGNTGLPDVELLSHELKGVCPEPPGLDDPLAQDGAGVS

| Binder | EC50 [1] | MFI [2] | IC50 of blocking activity, cAMP-Glo, 300 nM NECA, HEK293-hA2aR cells, supernatant [3] | MFI [4] | IC50 of blocking activity, cAMP-Glo, 300 nM NECA, HEK293-hA2aR cells, supernatant [5] |
| --- | --- | --- | --- | --- | --- |
| Hu3F8-H3/Hu3F8-L5 (antibody, human IgG1, V domains shown, Human IgG1 FES (L234F, L235E, P331S) and human Ig kappa constant domains; also called Hu3F8 VH3/VL5) VH: EVQLVQSGAEVKKPGASVKVSCKASGFTFTRYWMNWVRQAPGQGLEWIGRIDPSDSETHYNHKFWGRATLTVDTSTSTVYMELSSLRSEDTAVYYCLRSLYGKGDYWGQGTTVTVSS VL: DVVMTQSPLSLPVTPGEPASISCRSSQSIVHSNGNTYLEWYLQKPGQSPQLLIYKVSNRFSGVPDRFSGSGSGTDFTLKISRVEAEDVGVYYCYQGSHVPLTFGGGTKVEIK | 0.83 nM | 1850 MFI | 1.5 nM |  |  |
| Hu3F6-H3/Hu3F6-L3 (antibody, human IgG1, V domains shown, Human IgG1 FES (L234F, L235E, P331S) and human Ig kappa constant domains; also called Hu3F6 VH3/VL3) VH: EVQLVQSGAEVKKPGASVKVSCKTSGFAFTSYWMNWVRQAPGQGLEWIGRIDPSDSEAHYHHKFWGRATLTVDTSSSTVYMELSSLRSEDTAVYYCLRSLYGKGDYWGHGTTVTVSS VL: DVVMTQSPLSLPVTLGQPASISCRSSQSLVHRNGNTYLEWYQQRPGQSPRLLIYKVSNRFSGVPDRFSGSGSGTDFTLKISRVEAEDVGVYYCYQGSHVPLTFGGGTKVEIK | 0.64 nM |  |  | 1930 MFI | 2 nM |
| Hu3F8-H2/Hu3F8-L5 (antibody, human IgG1, V domains shown, Human IgG1 FES (L234F, L235E, P331S) and human Ig kappa constant domains; also called Hu3F8 VH2/VL5) VH: EVQLVQSGAEVKKPGASVKVSCKASGFTFTRYWMNWVRQAPGQGLEWMGRIDPSDSETHYNHKFWGRVTMTVDTSTSTVYMELSSLRSEDTAVYYCLRSLYGKGDYWGQGTTVTVSS VL: DVVMTQSPLSLPVTPGEPASISCRSSQSIVHSNGNTYLEWYLQKPGQSPQLLIYKVSNRFSGVPDRFSGSGSGTDFTLKISRVEAEDVGVYYCYQGSHVPLTFGGGTKVEIK | 0.9 nM | 1770 MFI | 1.8 nM |  |  |
| Hu3F8-H3/Hu3F8-L3 (antibody, human IgG1, V domains shown, Human IgG1 FES (L234F, L235E, P331S) and human Ig kappa constant domains; also called Hu3F8 VH3/VL3) VH: EVQLVQSGAEVKKPGASVKVSCKASGFTFTRYWMNWVRQAPGQGLEWIGRIDPSDSETHYNHKFWGRATLTVDTSTSTVYMELSSLRSEDTAVYYCLRSLYGKGDYWGQGTTVTVSS VL: DVVMTQSPLSLPVTLGQPASISCRSSQSIVHSNGNTYLEWYQQRPGQSPRLLIYKVSNRFSGVPDRFSGSGSGTDFTLKISRVEAEDVGVYYCYQGSHVPLTFGGGTKVEIK | 0.69 nM | 1860 MFI | 1.1 nM |  |  |
| Hu3F8-H3/Hu3F8-L4 (antibody, human IgG1, V domains shown, Human IgG1 FES (L234F, L235E, P331S) and human Ig kappa constant domains) VH: EVQLVQSGAEVKKPGASVKVSCKASGFTFTRYWMNWVRQAPGQGLEWIGRIDPSDSETHYNHKFWGRATLTVDTSTSTVYMELSSLRSEDTAVYYCLRSLYGKGDYWGQGTTVTVSS VL: DIVMTQSPLSLPVTPGEPASISCRSSQSIVHSNGNTYLEWYLQKPGQSPQLLIYKVSNRFSGVPDRFSGSGSGTDFTLKISRVEAEDVGVYYCYQGSHVPLTFGGGTKVEIK |  | 1840 MFI | 1.7 nM |  |  |
| Hu3F8-H1/Hu3F8-L5 (antibody, human IgG1, V domains shown, Human IgG1 FES (L234F, L235E, P331S) and human Ig kappa constant domains; also called Hu3F8 VH1/VL5) VH: QVQLVQSGAEVKKPGASVKVSCKASGFTFTRYWMNWVRQAPGQGLEWMGRIDPSDSETHYNHKFWGRVTMTRDTSTSTVYMELSSLRSEDTAVYYCLRSLYGKGDYWGQGTTVTVSS VL: DVVMTQSPLSLPVTPGEPASISCRSSQSIVHSNGNTYLEWYLQKPGQSPQLLIYKVSNRFSGVPDRFSGSGSGTDFTLKISRVEAEDVGVYYCYQGSHVPLTFGGGTKVEIK | 0.85 nM | 1790 MFI | 1.4 nM |  |  |
| Hu3F8-H4/Hu3F8-L3 (antibody, human IgG1, V domains shown, Human IgG1 FES (L234F, L235E, P331S) and human Ig kappa constant domains; also called Hu3F8 VH4/VL3) VH: EVQLVQSGAEVKKPGASVKVSCKASGFTFTRYWMNWVRQAPGQGLEWIGRIDPSDSETHYNHKFWGRATLTVDKSTSTVYMELSSLRSEDTAVYYCLRSLYGKGDYWGQGTTVTVSS VL: DVVMTQSPLSLPVTLGQPASISCRSSQSIVHSNGNTYLEWYQQRPGQSPRLLIYKVSNRFSGVPDRFSGSGSGTDFTLKISRVEAEDVGVYYCYQGSHVPLTFGGGTKVEIK | 0.6 nM | 1910 MFI | 0.7 nM |  |  |
| Hu3F8-H4/Hu3F8-L5 (antibody, human IgG1, V domains shown, Human IgG1 FES (L234F, L235E, P331S) and human Ig kappa constant domains; also called Hu3F8 VH4/VL5) VH: EVQLVQSGAEVKKPGASVKVSCKASGFTFTRYWMNWVRQAPGQGLEWIGRIDPSDSETHYNHKFWGRATLTVDKSTSTVYMELSSLRSEDTAVYYCLRSLYGKGDYWGQGTTVTVSS VL: DVVMTQSPLSLPVTPGEPASISCRSSQSIVHSNGNTYLEWYLQKPGQSPQLLIYKVSNRFSGVPDRFSGSGSGTDFTLKISRVEAEDVGVYYCYQGSHVPLTFGGGTKVEIK | 0.75 nM | 1890 MFI | 1.5 nM |  |  |
| Hu3F8-H5/Hu3F8-L4 (antibody, human IgG1, V domains shown, Human IgG1 FES (L234F, L235E, P331S) and human Ig kappa constant domains) VH: EVQLVQSGAEVKKPGASVKVSCKASGFTFTRYWMNWVRQAPGQGLEWIGRIDPSDSETHYNAKFWGRATLTVDKSTSTVYMELSSLRSEDTAVYYCLRSLYGKGDYWGQGTTVTVSS VL: DIVMTQSPLSLPVTPGEPASISCRSSQSIVHSNGNTYLEWYLQKPGQSPQLLIYKVSNRFSGVPDRFSGSGSGTDFTLKISRVEAEDVGVYYCYQGSHVPLTFGGGTKVEIK |  | 1840 MFI | 2.2 nM |  |  |
| Hu3F8-H5/Hu3F8-L3 (antibody, human IgG1, V domains shown, Human IgG1 FES (L234F, L235E, P331S) and human Ig kappa constant domains) VH: EVQLVQSGAEVKKPGASVKVSCKASGFTFTRYWMNWVRQAPGQGLEWIGRIDPSDSETHYNAKFWGRATLTVDKSTSTVYMELSSLRSEDTAVYYCLRSLYGKGDYWGQGTTVTVSS VL: DVVMTQSPLSLPVTLGQPASISCRSSQSIVHSNGNTYLEWYQQRPGQSPRLLIYKVSNRFSGVPDRFSGSGSGTDFTLKISRVEAEDVGVYYCYQGSHVPLTFGGGTKVEIK |  | 1840 MFI | 1.5 nM |  |  |
| Hu3F8-H4/Hu3F8-L4 (antibody, human IgG1, V domains shown, Human IgG1 FES (L234F, L235E, P331S) and human Ig kappa constant domains; also called Hu3F8 VH4/VL4) VH: EVQLVQSGAEVKKPGASVKVSCKASGFTFTRYWMNWVRQAPGQGLEWIGRIDPSDSETHYNHKFWGRATLTVDKSTSTVYMELSSLRSEDTAVYYCLRSLYGKGDYWGQGTTVTVSS VL: DIVMTQSPLSLPVTPGEPASISCRSSQSIVHSNGNTYLEWYLQKPGQSPQLLIYKVSNRFSGVPDRFSGSGSGTDFTLKISRVEAEDVGVYYCYQGSHVPLTFGGGTKVEIK | 0.79 nM | 1880 MFI | 1 nM |  |  |
| Hu3F8-H6/Hu3F8-L3 (antibody, human IgG1, V domains shown, Human IgG1 FES (L234F, L235E, P331S) and human Ig kappa constant domains; also called Hu3F8 VH6/VL3) VH: EVQLVQSGAEVKKPGESLRISCKASGFTFTRYWMNWVRQMPGKGLEWIGRIDPSDSETHYNHKFWGHATLSVDKSSSTVYLQWSSLKASDTAMYYCLRSLYGKGDYWGQGTTVTVSS VL: DVVMTQSPLSLPVTLGQPASISCRSSQSIVHSNGNTYLEWYQQRPGQSPRLLIYKVSNRFSGVPDRFSGSGSGTDFTLKISRVEAEDVGVYYCYQGSHVPLTFGGGTKVEIK | 0.59 nM | 1880 MFI | 1.2 nM |  |  |
| Hu3F8-H5/Hu3F8-L5 (antibody, human IgG1, V domains shown, Human IgG1 FES (L234F, L235E, P331S) and human Ig kappa constant domains) VH: EVQLVQSGAEVKKPGASVKVSCKASGFTFTRYWMNWVRQAPGQGLEWIGRIDPSDSETHYNAKFWGRATLTVDKSTSTVYMELSSLRSEDTAVYYCLRSLYGKGDYWGQGTTVTVSS VL: DVVMTQSPLSLPVTPGEPASISCRSSQSIVHSNGNTYLEWYLQKPGQSPQLLIYKVSNRFSGVPDRFSGSGSGTDFTLKISRVEAEDVGVYYCYQGSHVPLTFGGGTKVEIK |  | 1900 MFI | 1.6 nM |  |  |
| Hu3F8-H6/Hu3F8-L4 (antibody, human IgG1, V domains shown, Human IgG1 FES (L234F, L235E, P331S) and human Ig kappa constant domains) VH: EVQLVQSGAEVKKPGESLRISCKASGFTFTRYWMNWVRQMPGKGLEWIGRIDPSDSETHYNHKFWGHATLSVDKSSSTVYLQWSSLKASDTAMYYCLRSLYGKGDYWGQGTTVTVSS VL: DIVMTQSPLSLPVTPGEPASISCRSSQSIVHSNGNTYLEWYLQKPGQSPQLLIYKVSNRFSGVPDRFSGSGSGTDFTLKISRVEAEDVGVYYCYQGSHVPLTFGGGTKVEIK |  | 1880 MFI | 2.3 nM |  |  |
| Hu3F8-H6/Hu3F8-L5 (antibody, human IgG1, V domains shown, Human IgG1 FES (L234F, L235E, P331S) and human Ig kappa constant domains; also called Hu3F8 VH6/VL5) VH: EVQLVQSGAEVKKPGESLRISCKASGFTFTRYWMNWVRQMPGKGLEWIGRIDPSDSETHYNHKFWGHATLSVDKSSSTVYLQWSSLKASDTAMYYCLRSLYGKGDYWGQGTTVTVSS VL: DVVMTQSPLSLPVTPGEPASISCRSSQSIVHSNGNTYLEWYLQKPGQSPQLLIYKVSNRFSGVPDRFSGSGSGTDFTLKISRVEAEDVGVYYCYQGSHVPLTFGGGTKVEIK | 0.65 nM | 1900 MFI | 1.5 nM |  |  |
| Hu3F8-H2/Hu3F8-L3 (antibody, human IgG1, V domains shown, Human IgG1 FES (L234F, L235E, P331S) and human Ig kappa constant domains; also called Hu3F8 VH2/VL3) VH: EVQLVQSGAEVKKPGASVKVSCKASGFTFTRYWMNWVRQAPGQGLEWMGRIDPSDSETHYNHKFWGRVTMTVDTSTSTVYMELSSLRSEDTAVYYCLRSLYGKGDYWGQGTTVTVSS VL: DVVMTQSPLSLPVTLGQPASISCRSSQSIVHSNGNTYLEWYQQRPGQSPRLLIYKVSNRFSGVPDRFSGSGSGTDFTLKISRVEAEDVGVYYCYQGSHVPLTFGGGTKVEIK | 0.66 nM | 1800 MFI | 1.1 nM |  |  |
| Hu3F8-H1/Hu3F8-L3 (antibody, human IgG1, V domains shown, Human IgG1 FES (L234F, L235E, P331S) and human Ig kappa constant domains) VH: QVQLVQSGAEVKKPGASVKVSCKASGFTFTRYWMNWVRQAPGQGLEWMGRIDPSDSETHYNHKFWGRVTMTRDTSTSTVYMELSSLRSEDTAVYYCLRSLYGKGDYWGQGTTVTVSS VL: DVVMTQSPLSLPVTLGQPASISCRSSQSIVHSNGNTYLEWYQQRPGQSPRLLIYKVSNRFSGVPDRFSGSGSGTDFTLKISRVEAEDVGVYYCYQGSHVPLTFGGGTKVEIK |  | 1810 MFI | 1.5 nM |  |  |
| Hu3F6-H5/Hu3F6-L8 (antibody, human IgG1, V domains shown, Human IgG1 FES (L234F, L235E, P331S) and human Ig kappa constant domains; also called Hu3F6 VH5/VL8) VH: EVQLVQSGAEVKKPGASVKVSCKTSGFAFTSYWMNWVRQAPGQGLEWIGRIDPSDSEAHYAHKFWGRATLTVDKSSSTVYMELSSLRSEDTAVYYCLRSLYGKGDYWGHGTTVTVSS VL: DVVMTQSPLSLPVTPGEPASISCRSSQSLVHRNGNTYLEWYLQKPGQSPQLLIYKVSNRFSGVPDRFSGSGSGTDFTLKISRVEAEDVGVYYCYQGSHVPLTFGGGTKVEIK | 0.59 nM |  |  | 1890 MFI | 1.1 nM |
